Measured values reported in article PMC8563870, “Development of a nanobody-based immunoassay for the sensitive detection of fibrinogen-like protein 1” (Acta Pharmacologica Sinica, 2021).

B1: FGL1-Fc fusion protein (human fibrinogen-like protein 1 with C-terminal human IgG1 Fc and Flag tag) (Fc fusion, UniProt Q08830 23-306, looked up)
chain: LEDCAQEQMRLRAQVRLLETRVKQQQVKIKQLLQENEVQFLDKGDENTVIDLGSKRQYADCSEIFNDGYKLSGFYKIKPLQSPAEFSVYCDMSDGGGWTVIQRRSDGSENFNRGWKDYENGFGNFVQKHGEYWLGNKNLHFLTTQEDYTLKIDLADFEKNSRYAQYKNFKVGDEKNFYELNIGEYSGTAGDSLAGNFHPEVQWWASHQRMKFSTWDRDHDNYEGNCAEEDQSGWWFNRCHSANLNGVYYSGPYTAKTDNGIVWYTWHGWWYSLKSVVMKIRPND
notes: signal peptide in the construct; human fibrinogen-like protein 1 (FGL1), amino acids 1-306 of NCBI NM_004467, called full-length in the methods; the results say that the protein has 312 amino acids; A 3C protease site and a linker (GGGGS) stand between FGL1 and the Fc, and the Flag tag follows the Fc; The Fc may itself hold the dimer together; For SPR and the ELISAs the Fc was cut off with 3C …

Legend:
LAG-3 (Homo sapiens) = LAG-3 (Homo sapiens) (UniProt P18627); details: cited from earlier work
[1] = biological target: the molecule itself; assay: SEC; Superdex 200, 20 mM Tris pH 8.0, 150 mM NaCl; FGL1-Fc after anti-Flag M2 affinity; one aggregate peak and two FGL1 peaks, the peak at approximately 66 mL taken as the homodimer

LAG-3 (Homo sapiens), sequence (P18627 23-450): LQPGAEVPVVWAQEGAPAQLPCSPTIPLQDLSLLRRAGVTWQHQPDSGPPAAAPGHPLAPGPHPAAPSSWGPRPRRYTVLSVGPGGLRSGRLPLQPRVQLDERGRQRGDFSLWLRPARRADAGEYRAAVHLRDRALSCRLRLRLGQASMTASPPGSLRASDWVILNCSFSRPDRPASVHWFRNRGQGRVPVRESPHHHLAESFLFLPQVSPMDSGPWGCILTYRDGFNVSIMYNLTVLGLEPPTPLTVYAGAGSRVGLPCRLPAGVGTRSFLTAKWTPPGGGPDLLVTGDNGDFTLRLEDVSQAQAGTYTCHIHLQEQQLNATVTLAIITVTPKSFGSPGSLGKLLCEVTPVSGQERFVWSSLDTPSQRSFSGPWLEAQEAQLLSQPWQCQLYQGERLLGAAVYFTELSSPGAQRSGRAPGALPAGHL

| Molecule | Kd (LAG-3 (Homo sapiens)) [nM] | stoichiometry N [1] |
| --- | --- | --- |
| FGL1 (from UniProt Q08830) | 1.5 | – |
| B1 | – | 2 |
